Like-named read-outs stand apart in the source and are kept apart here. Values belong to the molecule of their own block, whether it stands above or below them.
Assays:
[1] = target: RAGE (Bos taurus) (UniProt Q28173); conditions: cited from earlier work
[2] = target: RAGE (Bos taurus) (UniProt Q28173); conditions: cited from earlier work; remark: listed apart in the source
[3] = target: RAGE C1 domain (Homo sapiens) (UniProt Q15109); conditions: cited from earlier work
[4] = target: sRAGE-Fc sRAGE (Homo sapiens) (UniProt Q15109); conditions: cited from earlier work
[5] = target: RAGE V-domain (Mus musculus) (UniProt Q62151); conditions: cited from earlier work
[6] = target: His-tagged human sRAGE expressed in U373 cells (human, UniProt Q15109 23-342, N-glycans); test: ELISA
[7] = target: His-tagged human sRAGE expressed in H4 cells (human, UniProt Q15109 23-342, N-glycans); test: ELISA
[8] = target: His-tagged human sRAGE expressed in HL60 cells (human, UniProt Q15109 23-342, N-glycans); test: ELISA
[9] = target: His-tagged human sRAGE expressed in HeLa cells (human, UniProt Q15109 23-342, N-glycans at N25 and N81); test: ELISA
[10] = target: His-tagged human sRAGE expressed in HEK293 cells (human, UniProt Q15109 23-342, N-glycans); test: ELISA
[11] = target: T1, total bovine lung RAGE (bovine, UniProt Q28173 23-416, N-glycans (native glycosylation)); test: ELISA
T1 sequence (looked up): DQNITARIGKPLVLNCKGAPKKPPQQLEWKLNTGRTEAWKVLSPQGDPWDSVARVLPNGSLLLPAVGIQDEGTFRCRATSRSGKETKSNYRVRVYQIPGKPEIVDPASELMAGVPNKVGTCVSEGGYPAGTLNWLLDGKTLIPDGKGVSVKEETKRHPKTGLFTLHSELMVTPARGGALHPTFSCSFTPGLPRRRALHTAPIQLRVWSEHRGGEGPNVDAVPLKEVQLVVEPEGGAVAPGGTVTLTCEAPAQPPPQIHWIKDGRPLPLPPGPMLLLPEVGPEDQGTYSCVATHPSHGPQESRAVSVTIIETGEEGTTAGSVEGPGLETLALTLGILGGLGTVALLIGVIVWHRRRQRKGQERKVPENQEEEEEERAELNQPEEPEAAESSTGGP

[12] = target: T2, mAbGB3.1-enriched bovine RAGE (bovine, UniProt Q28173 23-416, N-glycans enriched for carboxylated glycans); test: ELISA
T2 sequence (looked up): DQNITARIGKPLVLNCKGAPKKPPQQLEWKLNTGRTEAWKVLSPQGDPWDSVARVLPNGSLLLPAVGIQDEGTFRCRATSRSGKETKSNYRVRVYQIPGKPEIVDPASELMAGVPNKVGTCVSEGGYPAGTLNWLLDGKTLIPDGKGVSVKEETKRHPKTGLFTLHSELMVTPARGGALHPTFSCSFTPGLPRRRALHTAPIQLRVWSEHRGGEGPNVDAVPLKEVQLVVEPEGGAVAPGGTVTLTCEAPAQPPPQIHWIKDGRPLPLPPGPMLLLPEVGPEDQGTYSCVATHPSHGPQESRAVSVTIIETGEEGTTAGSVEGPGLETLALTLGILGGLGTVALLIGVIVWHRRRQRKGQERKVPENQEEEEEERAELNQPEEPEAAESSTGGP

RAGE C1 domain (Homo sapiens), sequence (Q15109 124-221): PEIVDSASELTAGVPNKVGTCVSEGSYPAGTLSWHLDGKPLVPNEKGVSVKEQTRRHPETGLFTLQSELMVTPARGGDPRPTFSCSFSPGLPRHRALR
His-tagged human sRAGE expressed in H4 cells, sequence (Q15109 23-342): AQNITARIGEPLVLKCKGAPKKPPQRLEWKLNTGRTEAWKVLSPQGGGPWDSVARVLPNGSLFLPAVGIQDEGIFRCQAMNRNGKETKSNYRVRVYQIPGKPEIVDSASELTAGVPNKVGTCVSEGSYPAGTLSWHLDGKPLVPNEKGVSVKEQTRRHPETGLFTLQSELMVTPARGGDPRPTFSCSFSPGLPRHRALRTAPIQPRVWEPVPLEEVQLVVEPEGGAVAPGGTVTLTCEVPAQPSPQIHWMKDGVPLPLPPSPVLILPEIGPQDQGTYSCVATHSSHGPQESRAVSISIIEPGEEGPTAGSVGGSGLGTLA
His-tagged human sRAGE expressed in U373 cells, sequence (Q15109 23-342): as above
His-tagged human sRAGE expressed in HeLa cells, sequence (Q15109 23-342): as above
His-tagged human sRAGE expressed in HL60 cells, sequence (Q15109 23-342): as above
His-tagged human sRAGE expressed in HEK293 cells, sequence (Q15109 23-342): as above
sRAGE-Fc sRAGE (Homo sapiens), sequence (Q15109 23-342): as above
RAGE V-domain (Mus musculus), sequence (Q62151 23-109): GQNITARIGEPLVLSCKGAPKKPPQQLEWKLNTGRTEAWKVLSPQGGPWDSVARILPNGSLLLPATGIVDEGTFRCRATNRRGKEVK

Molecule: S100A8/A9 (from UniProt P05109)
Kd [1]: 7.62 nM | Kd [2]: 34.4 nM

Molecule: S100A12 (from UniProt P80511)
Kd [3]: 90 nM | Kd [4]: 80 nM | Kd [5]: 90 nM

binding result [6]: binds | binding result [7]: binds | binding result [8]: binds | binding result [9]: binds | binding result [10]: binds | Kd [11]: 51.8 ± 20.6 nM | Kd [12]: 133 ± 46.4 nM
B1: recombinant human S100A12 (ligand, UniProt P80511 1-92, looked up)
chain: MTKLEEHLEGIVNIFHQYSVRKGHFDTLSKGELKQLLTKELANTIKNIKDKAVIDEIFQGLDANQDEQVDFQEFISLVAIALKAAHYHTHKE

Kd [11]: 53.1 ± 7.8 nM | Kd [12]: 30.9 ± 3.6 nM
B2: purified human S100A11 (ligand, UniProt P31949 1-105, looked up)
chain: MAKISSPTETERCIESLIAVFQKYAGKDGYNYTLSKTEFLSFMNTELAAFTKNQKDPGVLDRMMKKLDTNSDGQLDFSEFLNLIGGLAMACHDSFLKAVPSQKRT

Source: publication PMC2879712 (Journal of cellular biochemistry, 2010)
